Source: paper PMC6136799, “The Npa1p complex chaperones the assembly of the earliest eukaryotic large ribosomal subunit precursor” (PLoS Genetics, 2018)

What was measured:
GST-Npa1p = target: T1, GST-Npa1p (S. cerevisiae, UniProt P34241 1-1764); assay: pull-down; 2 μg GST-tagged protein on glutathione magnetic beads, 2 μg His-Dbp6p in 200 μl IP buffer (50 mM Tris-HCl pH 8, 150 mM potassium chloride, 5 mM magnesium chloride, 0.2% Nonidet P-40), 1 h at 16°C; Western with anti-His; also after RNase A treatment; conditions: both partners purified
T1 construct: Npa1p, S. cerevisiae; NPA1 ORF inserted into XhoI-digested pGEX-6P1 (plasmid pRC59); source: E. coli Rosetta λDE3, purified (Glutathione Sepharose 4 FF)

GST-Npa2p = target: T2, GST-Npa2p (S. cerevisiae, UniProt P47108 1-1174); assay: as above; conditions: both partners purified
T2 construct: Npa2p, S. cerevisiae; NPA2 ORF inserted into XhoI-digested pGEX-6P1 (plasmid pRC58); source: E. coli Rosetta λDE3, purified (Glutathione Sepharose 4 FF)
T2 sequence (looked up): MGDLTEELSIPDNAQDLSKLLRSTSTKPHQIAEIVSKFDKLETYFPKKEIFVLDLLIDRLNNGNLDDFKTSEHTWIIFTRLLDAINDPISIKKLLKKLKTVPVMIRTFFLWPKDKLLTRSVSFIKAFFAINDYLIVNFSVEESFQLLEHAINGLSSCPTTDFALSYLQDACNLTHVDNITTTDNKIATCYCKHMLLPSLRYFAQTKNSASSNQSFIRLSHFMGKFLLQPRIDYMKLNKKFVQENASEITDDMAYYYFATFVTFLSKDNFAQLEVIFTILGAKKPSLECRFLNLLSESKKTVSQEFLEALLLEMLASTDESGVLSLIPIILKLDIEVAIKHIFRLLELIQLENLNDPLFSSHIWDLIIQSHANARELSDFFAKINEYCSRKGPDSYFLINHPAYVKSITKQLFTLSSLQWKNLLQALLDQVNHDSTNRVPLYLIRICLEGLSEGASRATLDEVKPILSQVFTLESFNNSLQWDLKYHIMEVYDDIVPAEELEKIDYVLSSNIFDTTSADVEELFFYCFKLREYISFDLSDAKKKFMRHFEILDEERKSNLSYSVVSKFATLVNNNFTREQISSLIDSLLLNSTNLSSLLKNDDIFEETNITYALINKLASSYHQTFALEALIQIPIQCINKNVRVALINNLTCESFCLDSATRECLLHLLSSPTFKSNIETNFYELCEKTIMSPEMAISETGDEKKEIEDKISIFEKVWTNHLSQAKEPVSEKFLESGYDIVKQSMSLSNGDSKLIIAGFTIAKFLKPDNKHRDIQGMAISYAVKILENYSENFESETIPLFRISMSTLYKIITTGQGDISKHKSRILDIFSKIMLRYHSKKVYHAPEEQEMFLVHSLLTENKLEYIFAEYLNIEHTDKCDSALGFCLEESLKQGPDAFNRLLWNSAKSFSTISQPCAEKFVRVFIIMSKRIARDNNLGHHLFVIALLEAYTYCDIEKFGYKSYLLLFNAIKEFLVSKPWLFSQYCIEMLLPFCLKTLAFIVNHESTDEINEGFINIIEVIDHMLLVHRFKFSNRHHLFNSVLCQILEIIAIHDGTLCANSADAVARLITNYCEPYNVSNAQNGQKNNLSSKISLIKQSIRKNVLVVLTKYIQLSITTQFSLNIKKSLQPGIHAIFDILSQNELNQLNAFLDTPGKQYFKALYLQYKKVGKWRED

T1 sequence (P34241 whole entry): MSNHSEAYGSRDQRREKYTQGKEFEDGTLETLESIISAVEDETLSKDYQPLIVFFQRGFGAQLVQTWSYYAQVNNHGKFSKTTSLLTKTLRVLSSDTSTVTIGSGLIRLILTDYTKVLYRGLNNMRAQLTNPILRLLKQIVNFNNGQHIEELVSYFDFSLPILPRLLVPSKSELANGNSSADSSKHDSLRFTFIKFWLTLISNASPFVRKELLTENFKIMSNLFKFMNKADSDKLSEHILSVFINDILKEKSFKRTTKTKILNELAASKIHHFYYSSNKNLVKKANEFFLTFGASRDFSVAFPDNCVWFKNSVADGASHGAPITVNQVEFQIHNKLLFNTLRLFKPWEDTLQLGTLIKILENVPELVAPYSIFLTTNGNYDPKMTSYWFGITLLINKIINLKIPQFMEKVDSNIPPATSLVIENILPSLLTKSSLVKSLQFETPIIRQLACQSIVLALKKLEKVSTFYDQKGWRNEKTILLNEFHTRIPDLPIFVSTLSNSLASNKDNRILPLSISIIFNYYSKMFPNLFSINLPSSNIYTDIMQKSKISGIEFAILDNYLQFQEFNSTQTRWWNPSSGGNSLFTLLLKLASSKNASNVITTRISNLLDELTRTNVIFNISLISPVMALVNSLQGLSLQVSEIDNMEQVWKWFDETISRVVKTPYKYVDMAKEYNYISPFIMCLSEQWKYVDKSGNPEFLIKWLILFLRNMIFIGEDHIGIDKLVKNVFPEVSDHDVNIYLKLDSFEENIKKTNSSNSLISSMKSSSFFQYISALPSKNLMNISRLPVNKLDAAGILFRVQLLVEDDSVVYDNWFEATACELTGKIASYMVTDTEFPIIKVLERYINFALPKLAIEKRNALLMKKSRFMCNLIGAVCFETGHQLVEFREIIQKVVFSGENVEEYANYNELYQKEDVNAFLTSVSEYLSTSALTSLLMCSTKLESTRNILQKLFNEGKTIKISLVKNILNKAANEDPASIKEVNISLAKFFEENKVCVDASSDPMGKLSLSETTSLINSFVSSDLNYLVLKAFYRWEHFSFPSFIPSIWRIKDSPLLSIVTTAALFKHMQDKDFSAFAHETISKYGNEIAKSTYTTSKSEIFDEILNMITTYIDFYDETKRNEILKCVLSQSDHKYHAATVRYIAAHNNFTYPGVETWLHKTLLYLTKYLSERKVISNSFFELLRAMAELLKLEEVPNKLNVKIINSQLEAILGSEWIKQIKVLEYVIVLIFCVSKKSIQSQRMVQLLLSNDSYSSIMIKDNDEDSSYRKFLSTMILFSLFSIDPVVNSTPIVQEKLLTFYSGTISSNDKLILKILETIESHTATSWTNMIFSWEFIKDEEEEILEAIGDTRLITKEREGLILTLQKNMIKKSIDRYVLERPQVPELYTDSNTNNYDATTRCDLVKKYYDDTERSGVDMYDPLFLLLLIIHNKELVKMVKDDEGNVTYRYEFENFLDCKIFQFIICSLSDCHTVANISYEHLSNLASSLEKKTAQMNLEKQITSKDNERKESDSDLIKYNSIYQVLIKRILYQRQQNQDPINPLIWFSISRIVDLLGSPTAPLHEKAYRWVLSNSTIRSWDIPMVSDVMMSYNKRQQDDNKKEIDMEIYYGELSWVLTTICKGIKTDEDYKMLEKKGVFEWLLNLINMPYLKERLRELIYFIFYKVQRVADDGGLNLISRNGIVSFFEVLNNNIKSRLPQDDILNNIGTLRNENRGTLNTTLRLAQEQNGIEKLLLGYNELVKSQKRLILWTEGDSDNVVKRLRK

B1: His-Dbp6p (natural protein, S. cerevisiae, UniProt P53734 1-629, looked up)
chain: MFASRFDPSQLTAPAASAPEGIVGTTPPAIVPLKRQATESDNEEYGSHQDSDESSNSSSEEDEDRMQVDYGASEEDSSEVEEEESKPSTHSTVLSRFKQTVSLQERLGASDIAESKEDEGIEDEAASTHQLKQIPQPEFVKNPMNLNTNSLQFKSTGWLNTEKIYYDNSLIKPFSDYANELEAKLLQNICKNFSTNTFPIQSIILDSILPVLNFTLNVSKRNFTRRIGDILVNAATGSGKTLAYSIPIVQTLFKRQINRLRCIIIVPTKLLINQVYTTLTKLTQGTSLIVSIAKLENSLKDEHKKLSNLEPDILITTPGRLVDHLNMKSINLKNLKFLIIDEADRLLNQSFQGWCPKLMSHLKTDKLDTLPGNVIKMIFSATLTTNTEKLNGLNLYKPKLFLKQTDKLYQLPNKLNEFNINIPTAKSVYKPLILLYSICQFMAHSPIAAKILIFVKSNESSIRLSKLLQLICESRSQSSVLKNLQNLAVSINSVNSNNSKAENKKIVANFSHHSESAGITILITTDIMSRGIDINDITQVINYDPPMSSQQYVHRVGRTARANELGSAYNLLVGRGERTFFDDLNKDLDRDGKSVQPLELDFTLLESDSELYTSSLESLKNYHNNTAQA
notes: Dbp6p, S. cerevisiae; DBP6 ORF cloned into a modified pET-15b (plasmid pET-DBP6); also called His-tagged Dbp6p; source: E. coli Rosetta λDE3, purified (HisTrap FF, Superdex 200)
GST-Npa1p
  binding result: binds
GST-Npa2p
  binding result: binds
